Assay results reported in US20050119454A1.

Target: human long isoform dopamine D2 (D2DA) receptor (human), P14416
Assay: cell-based or functional assay

Sequence of human long isoform dopamine D2 (D2DA) receptor (human), P14416 (P14416 whole entry, canonical isoform): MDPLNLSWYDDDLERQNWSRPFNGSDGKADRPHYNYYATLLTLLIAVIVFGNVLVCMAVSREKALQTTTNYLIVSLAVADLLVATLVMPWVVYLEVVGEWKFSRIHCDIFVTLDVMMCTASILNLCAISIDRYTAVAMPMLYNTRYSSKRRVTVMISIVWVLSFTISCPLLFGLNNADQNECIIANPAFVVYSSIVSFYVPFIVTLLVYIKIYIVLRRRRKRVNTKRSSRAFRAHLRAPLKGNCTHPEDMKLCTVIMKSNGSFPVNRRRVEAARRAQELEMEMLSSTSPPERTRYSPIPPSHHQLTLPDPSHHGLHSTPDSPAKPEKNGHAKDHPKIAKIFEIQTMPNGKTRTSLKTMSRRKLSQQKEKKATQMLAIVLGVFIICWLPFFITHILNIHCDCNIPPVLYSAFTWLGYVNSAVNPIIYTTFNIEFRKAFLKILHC

Row | Binder | EAR response to dopamine, LtK system, paired one-tailed t-test | dopamine-induced EAR, CHO cells, paired one-tailed t-test | other results
1 | H-SHQRWEYKGVNCIVY-OH | – | – | potentiation of the dopamine-induced increment in total milli-pH units (EAR), CHO system, paired one-tailed t-test: 28.1 t statistic; potentiation of the dopamine-induced increment in total milli-pH units (EAR), LtK system, paired one-tailed t-test: 13.3 t statistic
2 | H-THQAFHYCNKQCLVI-OH (cysteine pairing not given here) | – | – | potentiation of the dopamine response (EAR), CHO system, paired one-tailed t-test: 1.31 t statistic; potentiation of the dopamine response (EAR), LtK system, paired one-tailed t-test: 0.62 t statistic
3 | ERNRKPLRPKNKYLI […] | 25.5 t statistic | 1.54 t statistic | –
4 | H-ERNRKPYRPKNKYLL-OH | 69.8 t statistic | 1.28 t statistic | –
